The values below come from patent publication US20190161555A1 (ALLIGATOR BIOSCIENCE, published 2019).

Some results are limits rather than exact numbers.

The target in test [1] is T1, Human OX40 (R&D Systems, 3388-OX) (human, UniProt P43489 29-216).
T1 construct: bought; also called OX40-Fc; Human OX40 (R&D systems, #3358_OX)
T1 sequence (looked up): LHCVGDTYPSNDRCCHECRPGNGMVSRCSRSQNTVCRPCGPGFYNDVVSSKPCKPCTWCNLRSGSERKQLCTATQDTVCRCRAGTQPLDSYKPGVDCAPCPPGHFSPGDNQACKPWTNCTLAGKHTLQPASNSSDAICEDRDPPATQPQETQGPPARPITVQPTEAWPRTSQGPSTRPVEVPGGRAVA
Nature of the test: ELISA, plates coated with human OX40, IgG. As for the experimental part:
(§1) ELISA plates were coated with human OX40 (R&D Systems, 3388-OX), CD40 (Ancell), or CD137 (R&D Systems) at 0.1 or 0.5 μg/ml. The ELISA plates were washed with PBST and then blocked with PBST+2% BSA for 1 h at room temperature and then washed again with PBST. The antibodies were added in dilution series to the ELISA plates for 1 h at room temperature and then washed with PBST. Binding was detected using goat anti human kappa light chain HRP, incubated for 1 h at room temperature. SuperSignal Pico Luminescent was used as substrate and luminescence was measured using Fluostar Optima.

Test [2] addresses T2, Construct 84: full length OX40 (human, UniProt P43489 29-277).
T2 construct: whole, on cells
T2 sequence (looked up): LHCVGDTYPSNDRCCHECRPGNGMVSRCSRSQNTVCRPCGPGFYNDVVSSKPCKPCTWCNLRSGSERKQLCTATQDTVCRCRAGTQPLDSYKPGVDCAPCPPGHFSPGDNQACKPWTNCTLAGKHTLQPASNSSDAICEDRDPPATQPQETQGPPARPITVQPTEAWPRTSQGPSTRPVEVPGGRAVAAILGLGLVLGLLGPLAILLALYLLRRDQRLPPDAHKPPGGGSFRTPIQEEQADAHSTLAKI
The test is described as follows: flow cytometry, 293-F cells transfected with the construct. As for the experimental part: The transfected cells were incubated with human OX40 antibodies, human OX40L (hOX40L, RnD Systems), mouse OX40L (mOX40L, RnD Systems) and controls for 30 min 4° C. and then detected with a-huIgG-PE (Jackson Immunoresearch) 30 min 4° C. Cells were analyzed with FACS Verse (BD Biosciences). Binding to the different chimeric constructs were calculated as relative (mean fluorescence intensity) MFI compared to the binding of the isotype control.
Background: A flow cytometer gives signals particle by particle.

Test [3] concerns the target Macaca mulatta OX40 on HEK cells (Macaca mulatta; human). Nature of the test: flow cytometry, macOX40-HEK cells; ends of the 95% confidence interval. As for the experimental part: For the assay, the transfected cells were incubated with the test antibodies and controls for 30 min at 4° C. and then detected with a-huIgG-PE (Jackson Immunoresearch) 30 min 4° C. Cells were analyzed by flow cytometry with FACS Verse (BD Biosciences).

The target of test [4] is T1, Human OX40 (R&D Systems, 3388-OX). Nature of the test: SPR Biacore, human OX40 amine-coupled on CM5, antibody injected, 1:1 Langmuir. As for the experimental part:
Human OX40 (R&D systems, #3358_OX) was immobilized to the Biacore™ sensor chip, CM5, using conventional amine coupling. The tested antibodies and controls (serially diluted 1/3 or 1/2 100-2 nM) were analyzed for binding in HBS-P (GE, #BR-1003-68) at a flow rate of […]. The association was followed for 3 minutes and the dissociation for 20 minutes. Regeneration was performed twice using 50 mM NaOH for 60 seconds. The kinetic parameters and the affinity constants were calculated using 1:1 Langmuir model with drifting baseline. […] The kinetic parameters and the affinity constants were calculated using BIAevaluation 4.1 software.

In a further test the target is T3, murine OX40 (murine, UniProt P47741 20-211, limits assumed).
T3 construct: also called mouse OX40
T3 sequence (looked up): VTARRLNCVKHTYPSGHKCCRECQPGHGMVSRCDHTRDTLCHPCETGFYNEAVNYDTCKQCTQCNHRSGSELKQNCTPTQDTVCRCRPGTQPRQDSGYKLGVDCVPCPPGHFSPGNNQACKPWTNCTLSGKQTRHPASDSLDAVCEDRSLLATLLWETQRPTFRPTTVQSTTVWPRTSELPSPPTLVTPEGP
Nature of the test: ELISA.

Test [5] has as its target T4, human OX40 overexpressed on CHO cells (human, UniProt P43489 29-214; P25942 194-277).
T4 construct: extracellular domain;domain: transmembrane and intracellular part; also called hOX40; huOX40 (CHO)
T4 sequence (looked up): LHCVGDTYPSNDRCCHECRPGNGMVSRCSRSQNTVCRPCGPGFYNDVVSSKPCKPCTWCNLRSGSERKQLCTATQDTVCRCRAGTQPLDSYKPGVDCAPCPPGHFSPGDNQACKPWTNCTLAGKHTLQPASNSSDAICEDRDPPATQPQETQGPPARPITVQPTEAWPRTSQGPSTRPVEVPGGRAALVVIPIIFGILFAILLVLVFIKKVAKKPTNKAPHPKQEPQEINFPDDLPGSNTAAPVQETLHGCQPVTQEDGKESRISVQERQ
The test is described as follows: flow cytometry, cells with human OX40; ends of the 95% confidence interval.

The target in a further test is CD137 (R&D Systems) (UniProt Q07011 24-186, limits assumed). The test is described as follows: ELISA, CD137 coated. As for the experimental part: as §1
(An ELISA detects its analyte on a solid surface through an enzyme-linked reagent.)

Another test concerns the target CD40 (Ancell) (UniProt P25942 21-193, limits assumed). The test is described as follows: ELISA, CD40 coated. As for the experimental part: as §1

CD40 (Ancell), sequence (P25942 21-193 limits assumed): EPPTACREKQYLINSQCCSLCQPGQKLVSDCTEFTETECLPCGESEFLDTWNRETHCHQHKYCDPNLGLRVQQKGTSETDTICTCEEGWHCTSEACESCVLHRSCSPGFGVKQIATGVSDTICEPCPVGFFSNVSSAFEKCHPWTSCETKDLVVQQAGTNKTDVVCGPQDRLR
CD137 (R&D Systems), sequence (Q07011 24-186 limits assumed): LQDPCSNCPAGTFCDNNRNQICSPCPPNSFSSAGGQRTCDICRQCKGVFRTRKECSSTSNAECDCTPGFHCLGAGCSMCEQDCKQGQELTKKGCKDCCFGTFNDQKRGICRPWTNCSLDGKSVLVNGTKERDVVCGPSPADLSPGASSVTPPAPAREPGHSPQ

B1: 1168/1135 (antibody, V domains shown)
VH: EVQLLESGGGLVQPGGSLRLSCAASGFTFSGSSMSWVRQAPGKGLEWVSSISYYGGYTYYADSVKGRFTISRDNSKNTLYLQMNSLRAEDTAVYYCARYFPHYYFDYWGQGTLVTVSS
VL: not shown
notes: OX40 antibody, tested as IgG
Usually EC50 stands for the concentration at which the effect is half-maximal. Low readings indicate an effect from little substance, high ones a need for much substance. Usually Kd stands for the equilibrium constant for the complex coming apart. Low values mean a tighter complex, high ones a looser complex. A word on the koff: it is the first-order rate constant of dissociation. A word on the kon: it is a measure of how fast the partners come together. For B1, the EC50 in test [1] is below 1 nM; in test [3] it was 0.0905 to 0.194 µg/mL; in test [5] it was 0.0636 to 0.131 µg/mL. Moreover, the “relative MFI” value in test [2] was 29.6 fold over isotype control. In test [4], the Kd amounted to 0.327 nM. Besides, in test [4], the koff was found to be 0.000169 s⁻¹. In test [4], this molecule gave a kon of 518000 M⁻¹ s⁻¹. The binding result with murine OX40, in the test with CD137 (R&D Systems) and with CD40 (Ancell) was “no binding” throughout.

B2: 1490/1135 (antibody, V domains shown)
VH: EVQLLESGGGLVQPGGSLRLSCAASGFTFSSYAMSWVRQAPGKGLEWVSGISYYGGYTYYADSVKGRFTISRDNSKNTLYLQMNSLRAEDTAVYYCARYYPHHYIDYWGQGTLVTVSS
VL: not shown
notes: OX40 antibody, tested as IgG
As for B2, the binding result with murine OX40, in the test with CD137 (R&D Systems) and with CD40 (Ancell) was “no binding” each time.

B3: 1542/1135 (antibody, V domains shown)
VH: EVQLLESGGGLVQPGGSLRLSCAASGFTFGSSSMYWVRQAPGKGLEWVSGIGYYSYSTSYADSVKGRFTISRDNSKNTLYLQMNSLRAEDTAVYYCARGYPHHYFDYWGQGTLVTVSS
VL: not shown
notes: OX40 antibody, tested as IgG
Regarding B3, the figures for the EC50 in test [1], in test [3] and in test [5] were below 1 nM, 0.722 to 1.41 µg/mL and 0.322 to 0.552 µg/mL, respectively. Further, the “relative MFI” value in test [2] came to 29.4 fold over isotype control. In test [4], this molecule returned a Kd of 0.463 nM. For the same molecule, in test [4], the koff was determined as 0.0001 s⁻¹. In test [4], the kon was 216000 M⁻¹ s⁻¹. The binding result in the test with murine OX40, with CD137 (R&D Systems) and with CD40 (Ancell) was “no binding” in each case.

B4: 1482/1483 (antibody, V domains shown)
VH: EVQLLESGGGLVQPGGSLRLSCAASGFTFSSYAMSWVRQAPGKGLEWVSYISYYSGYTYYADSVKGRFTISRDNSKNTLYLQMNSLRAEDTAVYYCARGYGYLDYWGQGTLVTVSS
VL: DIQMTQSPSSLSASVGDRVTITCRASQSISSYLNWYQQKPGKAPKLLIYAASSLQSGVPSRFSGSGSGTDFTLTISSLQPEDFATYYCQQYGSLLTFGQGTKLEIK
notes: OX40 antibody, tested as IgG
Consider B4, for which the EC50 in test [1] was below 1 nM; in test [3] it was 0.157 to 0.312 µg/mL; in test [5] it was 0.082 to 0.182 µg/mL. For the same molecule, in test [2], the “relative MFI” value was 24.9 fold over isotype control. Moreover, the Kd in test [4] came out at 0.753 nM. The molecule also had a koff in test [4] of 0.000584 s⁻¹. In test [4], the kon was 776000 M⁻¹ s⁻¹. Also, the binding result with murine OX40, with CD137 (R&D Systems) and with CD40 (Ancell) was “no binding” each time.

B5: 1170/1171 (antibody, V domains shown)
VH: EVQLLESGGGLVQPGGSLRLSCAASGFTFGGYYMSWVRQAPGKGLEWVSYIPGSGGSTYYADSVKGRFTISRDNSKNTLYLQMNSLRAEDTAVYYCARYDYYWMDYWGQGTLVTVSS
VL: DIQMTQSPSSLSASVGDRVTITCRASQSISSYLNWYQQKPGKAPKLLIYAASSLQSGVPSRFSGSGSGTDFTLTISSLQPEDFATYYCQQGHGSYPHTFGQGTKLEIK
notes: OX40 antibody, tested as IgG
In the case of B5, the binding result with murine OX40, with CD137 (R&D Systems) and in the test with CD40 (Ancell) was “no binding” in each case.

B6: 1526/1527 (antibody, V domains shown)
VH: EVQLLESGGGLVQPGGSLRLSCAASGFTFSGYSMYWVRQAPGKGLEWVSGIGYSGYGTYYADSVKGRFTISRDNSKNTLYLQMNSLRAEDTAVYYCARYYFHDYAAYSLDYWGQGTLVTVSS
VL: DIQMTQSPSSLSASVGDRVTITCRASQSISSYLNWYQQKPGKAPKLLIYAASSLQSGVPSRFSGSGSGTDFTLTISSLQPEDFATYYCQQYGSDSLLTFGQGTKLEIK
notes: OX40 antibody, tested as IgG
As for B6, the EC50 in test [1] was below 1 nM; in test [3] it was 0.292 to 0.589 µg/mL; in test [5], 0.172 to 0.429 µg/mL. The “relative MFI” value in test [2] was found to be 21.4 fold over isotype control. The same molecule had a Kd in test [4] of 0.43 nM. For the same molecule, the koff in test [4] came to 0.000187 s⁻¹. The kon in test [4] was 435000 M⁻¹ s⁻¹. Besides, the binding result with murine OX40, with CD137 (R&D Systems) and in the test with CD40 (Ancell) was “no binding” in each case.

B7: 1514/1515 (antibody, V domains shown)
VH: EVQLLESGGGLVQPGGSLRLSCAASGFTFGYYYMSWVRQAPGKGLEWVSGISSYGSYTYYADSVKGRFTISRDNSKNTLYLQMNSLRAEDTAVYYCARSGYSNWANSFDYWGQGTLVTVSS
VL: DIQMTQSPSSLSASVGDRVTITCRASQSISSYLNWYQQKPGKAPKLLIYAASSLQSGVPSRFSGSGSGTDFTLTISSLQPEDFATYYCQQGDYTLFTFGQGTKLEIK
notes: OX40 antibody, tested as IgG
Take B7: the binding result in the test with murine OX40, in the test with CD137 (R&D Systems) and with CD40 (Ancell) was “no binding” throughout.
